Results: the supplement of paper PMC10724198
± gives the standard deviation of the averaged measurements.

These sequences were tested on Saccharomyces cerevisiae (assay: protein stability index of tFT-peptide fusion (C-terminal peptide) (PSI (0-1 scale)); higher = more stable (slower turnover)). Settings: genetic background: wild type; temperature: 30 C.
Protocol: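 Multiplexed protein stability (MPS) profiling in S. cerevisiae. Random 12-aa peptides (tFT-X12 library) are fused to the C-terminus of a sfGFP-mCherry tandem fluorescent timer, after mCherry and a GGGS linker. Cells are FACS-sorted into 8 mCherry/sfGFP bins and deep-sequenced. The protein stability index (PSI) is the read-weighted bin average, scaled from 0 (unstable) to 1 (stable). Only peptides with >10 reads are reported; cells were grown at 30 °C in SC-His with glucose.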
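Note: PSI is a weighted mean of sequencing reads over stability bins, variants kept only with over 10 reads, mCherry proximal and sfGFP distal, peptide attached via GGGS linker.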

Sequence | protein stability index
KVGKRQGFSVYV | 0.684 ± 0.022
PDYNEIIEYTEG | 0.706 ± 0.033
RRGPLDSVLVAI | 0.713 ± 0.05
PPPPPPPPPCSP | 0.7052 ± 0.0024
SGVVGLGCVPWF | 0.857 ± 0.2
KVPNEIKRYVFI | 0.66446 ± 8.8e-05
RAGHREIARQKG | 0.6307 ± 0.0013
RPPPPHPSPLPL | 0.713 ± 0.052
VGFVAWFRNVCR | 0.653 ± 0.044
PSSPPPPPLSPL | 0.664 ± 0.017
SPLPPPSPRPSL | 0.681 ± 0.039
PHGPPAHLRSRP | 0.737 ± 0.015
GDSWVVRSGVWV | 0.734 ± 0.13
EKSKNQKPHAAR | 0.633 ± 0.0088
EDSRATNERGRT | 0.704 ± 0.049
PLAPPHRPALLM | 0.568 ± 0.034
ANRSPLFCVTFG | 0.695 ± 0.027
TEHLLTRGRRNT | 0.64 ± 0.032
PLPAPPTPPLPP | 0.763 ± 0.039
FSSSASNSSWPY | 0.721 ± 0.016
LSPSMSRLWGSK | 0.7365 ± 0.0033
CRSCFGGGVRFV | 0.743 ± 0.076
AGEDRGSRWVCI | 0.699 ± 0.032
VGREVSYGRGGD | 0.655 ± 0.031
TTKKMVRIVSTV | 0.571 ± 0.052

Sequence | protein stability index
CVLLSEVNRTMG | 0.646 ± 0.041
YSPFCPSASPWA | 0.712 ± 0.023
NDGSDYRFLSLK | 0.706 ± 0.011
RKCHCPGGGRRI | 0.7171 ± 0.00079
RFARQSNTFSQS | 0.659 ± 0.013
VGGVGGLWGGAV | 0.69 ± 0.064
KTERRKEENTGE | 0.665 ± 0.041
IPDSSPIVPHPK | 0.6722 ± 0.0065
LLNNNLNQRIYQ | 0.729 ± 0.019
WISARQHQKTRL | 0.702 ± 0.065
WNQRMEPCLMSS | 0.65 ± 0.026
SLPLPPPSPPHV | 0.676 ± 0.018
PSAWRCFSTGKV | 0.844 ± 0.018
SVVVGTVFCRSW | 0.615 ± 0.015
WGRRVRVEGVVL | 0.613 ± 0.022
ELTKNRQTVIIS | 0.635 ± 0.035
PSGCIPCNVGVS | 0.705 ± 0.099
LSVFDTSLFFSS | 0.787 ± 0.099
TPPAEGTSQTKL | 0.659 ± 0.054
PLRRRPFAPPPP | 0.535 ± 0.034
VAGGLRGLGLRA | 0.67 ± 0.053
RHPPPPPPALTP | 0.707 ± 0.054
NECKIKKDNTKK | 0.672 ± 0.06
PSMLFPRTLSPL | 0.6963 ± 0.0056
NCMFKSNKQGGA | 0.6749 ± 0.0021

Sequence | protein stability index
EYCIYYTQFGSF | 0.65 ± 0.1
EWACGRAGLKVV | 0.491 ± 0.018
QDSDRSLTPKPL | 0.688 ± 0.028
PAPPPRPLPSPP | 0.713 ± 0.2
DAVWTRGGEGVW | 0.718 ± 0.019
GLGALPVRVWEG | 0.731 ± 0.034
YIDLLTRVCIRR | 0.6921 ± 0.0024
VGGGGEWCLVRL | 0.685 ± 0.013
KRCHPVYVRGGG | 0.568 ± 0.013
EKKKSCIMILRK | 0.701 ± 0.039
KKVKMIKEIRRG | 0.745 ± 0.044
EKKKNTQGIKKK | 0.685 ± 0.011
GLTSRIAAGRQR | 0.696 ± 0.022
FFPITAWSGWDG | 0.669 ± 0.093
PPPSSLVPFPLP | 0.7295 ± 0.0053
GGGGLGTAVVGV | 0.6748 ± 0.0024
GPSPPSPSPPPL | 0.622 ± 0.0084
KRKEKKKEKRRK | 0.714 ± 0.022
LFLEGWIRKGVR | 0.7427 ± 0.0059
FLLCFLRIPSCP | 0.5218 ± 0.0042
LVSVSVGFFLLL | 0.499 ± 0.047
PSVLLAPTRRHP | 0.678 ± 0.0016
PPPVSLFSPRSL | 0.781 ± 0.099
GQWCVAAALIER | 0.699 ± 0.1
SNRCGRGMRVFA | 0.658 ± 0.065

Sequence | protein stability index
EVLAVKLYSGIA | 0.648 ± 0.044
NCPIQEPVSAIY | 0.661 ± 0.007
LEPGSYRKRKPP | 0.587 ± 0.023
FRGGRTEWEKNV | 0.719 ± 0.058
SFRLRSLVFGFF | 0.597 ± 0.067
PPPPGPPPLPLP | 0.764 ± 0.058
SFPSLLRPPHFS | 0.706 ± 0.041
KENEKQRKSHKK | 0.687 ± 0.043
IGSRRMDADERV | 0.691 ± 0.026
SPPPLPLPPPAP | 0.695 ± 0.013
RQCSGMIMKDVG | 0.73 ± 0.036
RRHKNNRLTVCR | 0.625 ± 0.098
STNLITPPITNI | 0.677 ± 0.011
VWLGTCLPRRAV | 0.725 ± 0.13
LVSRLAGAVLGR | 0.632 ± 0.014
PTSPPPPPPPPP | 0.657 ± 0.084
GLVVCGGQVVEG | 0.704 ± 0.042
LPPPHYPHHTAS | 0.679 ± 0.052
GVSIGVLTGAWR | 0.646 ± 0.0015
RRKVGVFTRRWV | 0.691 ± 0.04
RSAVPSARASAD | 0.6431 ± 0.0026
GAGGVRCPWVFG | 0.674 ± 0.0075
FVCRQSGIWHLR | 0.686 ± 0.029
LPTLPLPHRHHL | 0.742 ± 0.0072
QCQVKGIFKKVF | 0.687 ± 0.0076

Sequence | protein stability index
RDLEAVRSEDHR | 0.6766 ± 0.0047
PLSPPPSLPVPL | 0.659 ± 0.051
RLSRCFDSHLGG | 0.696 ± 0.038
SPPSLPPLPPRF | 0.702 ± 0.016
VIVLVQDVALQL | 0.7 ± 0.065
SPLLRSRPPPPI | 0.749 ± 0.016
DLGLSYCGYAML | 0.683 ± 0.064
SGDGGVGHWVGG | 0.676 ± 0.025
LGGWVGGRGVRG | 0.717 ± 0.096
KEWKSESTVLEV | 0.7468 ± 0.0054
LSYRYPLYPILL | 0.647 ± 0.018
PSPPPSQSLPPP | 0.717 ± 0.043
TPNYPLHPTKKI | 0.681 ± 0.0084
SSPDLGPVCVPC | 0.647 ± 0.016
SPSSTSPAPFPL | 0.672 ± 0.14
VCRPLYNSMFGR | 0.691 ± 0.023
PSPPTSLPPTDA | 0.706 ± 0.029
GWVFLRVARFGL | 0.684 ± 0.045
PPFTRLPPPLSS | 0.741 ± 0.062
LGVGVGGRGVRG | 0.745 ± 0.0098
VKQGCISSNCKL | 0.762 ± 0.16
WRSGLRGPAIYG | 0.707 ± 0.018
AGARVGAPASTR | 0.664 ± 0.028
KCVQESIIKMMI | 0.763 ± 0.15
DCKVLIGQYQRE | 0.7 ± 0.0098

Sequence | protein stability index
SPLFLPPPVPPP | 0.599 ± 0.039
TPPPPPPFPLPP | 0.654 ± 0.031
HSDRPSPTRPQP | 0.6431 ± 0.0029
APFMSLSNTIAR | 0.677 ± 0.026
WRLAVDLGRFCT | 0.617 ± 0.16
CVSRLIPGDKHE | 0.67 ± 0.032
GGMDEVFRAHGP | 0.712 ± 0.018
QRGEGTSQGILT | 0.807 ± 0.13
PPPPHPPFPPRF | 0.722 ± 0.047
HPGPFSTTWHPT | 0.743 ± 0.068
FGVTLGYFSSVE | 0.656 ± 0.017
SVRWFLIGCGGA | 0.579 ± 0.048
PLPFLPPPPCPP | 0.696 ± 0.036
HNGRAARAYLCW | 0.65 ± 0.046
CVLVVCRFTGDW | 0.5083 ± 0.0038
EKCCVNSASSFG | 0.646 ± 0.0098
LVALTSVLSALF | 0.698 ± 0.069
VIFGCVLSQLDT | 0.705 ± 0.023
LSPSLPLPNPSP | 0.729 ± 0.044
GWAGRCAPGRVG | 0.637 ± 0.093
MFDSHQWVCIKD | 0.785 ± 0.1
FVRFLVGGLGRW | 0.606 ± 0.05
PCINGSASRRSG | 0.6189 ± 0.0058
LVLTLIDGSWNV | 0.7011 ± 0.0056
AGGTMVVVVRSC | 0.51175 ± 3.2e-05

Sequence | protein stability index
TINVWFARTNPD | 0.7403 ± 0.0048
PHSPSHTPVYPR | 0.694 ± 0.011
PAPPAALPPPHP | 0.637 ± 0.077
PSVPLAGFVCRA | 0.587 ± 0.11
WGEGRGRVWEIS | 0.665 ± 0.036
LLYSTRRCIFEF | 0.645 ± 0.034
GGGGGLRGRGVR | 0.682 ± 0.057
SPPRPPVLSPGH | 0.68 ± 0.085
PSLSPSPRITSS | 0.65 ± 0.077
CSSVTEFWWAVF | 0.766 ± 0.1
AGGAGGCRGWSI | 0.705 ± 0.018
TRSNEERKGKKS | 0.731 ± 0.14
FHYSRSCVLEQL | 0.698 ± 0.074
LKRRREGEPGKQ | 0.625 ± 0.053
LTSGTVLVLSSL | 0.683 ± 0.03
CWGEGGRTVING | 0.639 ± 0.03
VYAETMTKELRG | 0.69 ± 0.053
GGGLGGAGFRGG | 0.661 ± 0.051
PRPPPATRPGPP | 0.688 ± 0.017
SPPLHTFSLPFY | 0.669 ± 0.021
WSWEVTSSVCRI | 0.732 ± 0.058
PPAPPLPAPPWA | 0.54 ± 0.032
RGGGGAWAGGVA | 0.734 ± 0.019
YPLRCPITATHA | 0.616 ± 0.099
PRCPSTPQPEHH | 0.739 ± 0.027

Sequence | protein stability index
ENPSTIDLSARS | 0.656 ± 0.04
ASFVPPYLPSSM | 0.75 ± 0.17
SPPSFLSFFCAP | 0.755 ± 0.14
GLGGPYNSHMFT | 0.991 ± 0.013
PLSLSPLPSPPL | 0.704 ± 0.041
SGLAARFGLPIR | 0.674 ± 0.016
VVARGGGGGSGA | 0.583 ± 0.016
KIEAHKKYKKHQ | 0.726 ± 0.026
RLPPGRPPPPPP | 0.602 ± 0.08
VGLLCVGAGFWG | 0.652 ± 0.014
SLSAQTISDLSM | 0.68 ± 0.049
LHFYSLMEFQCD | 0.695 ± 0.038
SVALSSPSRYCS | 0.7137 ± 0.00077
RFSYFPALFFPS | 0.678 ± 0.043
GAGAHVPCSGRQ | 0.6754 ± 0.0034
SGLPVPFSALRS | 0.718 ± 0.049
GFSTCCLFWLTV | 0.529 ± 0.029
GVVVRSCLMGFT | 0.619 ± 0.022
TQSYLVSLRCGF | 0.796 ± 0.13
NSWCRFLRRCLV | 0.609 ± 0.074
AGLCVSIGVGRG | 0.652 ± 0.015
